From patent US20260167699A1 (Chugai, published 2026)

B1: GpH7-A5/GpH7-B3 variant P331_02A/GpL16-k0 (antibody, human IgG1, kappa)
heavy 1: not shown
heavy 2: not shown
light: DIVMTQSPLSLPVTPGEPASISCQASESLVHSNRNTYLHWYLQKPGQSPQLLIYKVSNRFSGVPDRFSGSGSGTDFTLKISRVEAEDVGVYYCSQNTHVPPTFGQGTKVEIERTVAAPSVFIFPPSDEQLKSGTASVVCLLNNFYPREAKVQWKVDNALQSGNSQESVTEQDSKDSTYSLSSTLTLSKADYEKHKVYACEVTHQGLSSPVTKSFNRGEC
notes: copies: 1 + 1 + 2
B2: GpH7-A5/GpH7-B3 variant P331_03V/GpL16-k0 (antibody, human IgG1, kappa)
heavy 1: not shown
heavy 2: not shown
light: DIVMTQSPLSLPVTPGEPASISCQASESLVHSNRNTYLHWYLQKPGQSPQLLIYKVSNRFSGVPDRFSGSGSGTDFTLKISRVEAEDVGVYYCSQNTHVPPTFGQGTKVEIERTVAAPSVFIFPPSDEQLKSGTASVVCLLNNFYPREAKVQWKVDNALQSGNSQESVTEQDSKDSTYSLSSTLTLSKADYEKHKVYACEVTHQGLSSPVTKSFNRGEC
notes: copies: 1 + 1 + 2
B3: GpH7-A5/GpH7-B3 variant P331_04F/GpL16-k0 (antibody, human IgG1, kappa)
heavy 1: not shown
heavy 2: not shown
light: DIVMTQSPLSLPVTPGEPASISCQASESLVHSNRNTYLHWYLQKPGQSPQLLIYKVSNRFSGVPDRFSGSGSGTDFTLKISRVEAEDVGVYYCSQNTHVPPTFGQGTKVEIERTVAAPSVFIFPPSDEQLKSGTASVVCLLNNFYPREAKVQWKVDNALQSGNSQESVTEQDSKDSTYSLSSTLTLSKADYEKHKVYACEVTHQGLSSPVTKSFNRGEC
notes: copies: 1 + 1 + 2
B4: GpH7-A5/GpH7-B3 variant P331_06M/GpL16-k0 (antibody, human IgG1, kappa)
heavy 1: not shown
heavy 2: not shown
light: DIVMTQSPLSLPVTPGEPASISCQASESLVHSNRNTYLHWYLQKPGQSPQLLIYKVSNRFSGVPDRFSGSGSGTDFTLKISRVEAEDVGVYYCSQNTHVPPTFGQGTKVEIERTVAAPSVFIFPPSDEQLKSGTASVVCLLNNFYPREAKVQWKVDNALQSGNSQESVTEQDSKDSTYSLSSTLTLSKADYEKHKVYACEVTHQGLSSPVTKSFNRGEC
notes: copies: 1 + 1 + 2
B5: GpH7-A5/GpH7-B3 variant P331_07I/GpL16-k0 (antibody, human IgG1, kappa)
heavy 1: not shown
heavy 2: not shown
light: DIVMTQSPLSLPVTPGEPASISCQASESLVHSNRNTYLHWYLQKPGQSPQLLIYKVSNRFSGVPDRFSGSGSGTDFTLKISRVEAEDVGVYYCSQNTHVPPTFGQGTKVEIERTVAAPSVFIFPPSDEQLKSGTASVVCLLNNFYPREAKVQWKVDNALQSGNSQESVTEQDSKDSTYSLSSTLTLSKADYEKHKVYACEVTHQGLSSPVTKSFNRGEC
notes: copies: 1 + 1 + 2
B6: GpH7-A5/GpH7-B3 variant P331_08L/GpL16-k0 (antibody, human IgG1, kappa)
heavy 1: not shown
heavy 2: not shown
light: DIVMTQSPLSLPVTPGEPASISCQASESLVHSNRNTYLHWYLQKPGQSPQLLIYKVSNRFSGVPDRFSGSGSGTDFTLKISRVEAEDVGVYYCSQNTHVPPTFGQGTKVEIERTVAAPSVFIFPPSDEQLKSGTASVVCLLNNFYPREAKVQWKVDNALQSGNSQESVTEQDSKDSTYSLSSTLTLSKADYEKHKVYACEVTHQGLSSPVTKSFNRGEC
notes: copies: 1 + 1 + 2
B7: GpH7-A5/GpH7-B3 variant P331_09D/GpL16-k0 (antibody, human IgG1, kappa)
heavy 1: not shown
heavy 2: not shown
light: DIVMTQSPLSLPVTPGEPASISCQASESLVHSNRNTYLHWYLQKPGQSPQLLIYKVSNRFSGVPDRFSGSGSGTDFTLKISRVEAEDVGVYYCSQNTHVPPTFGQGTKVEIERTVAAPSVFIFPPSDEQLKSGTASVVCLLNNFYPREAKVQWKVDNALQSGNSQESVTEQDSKDSTYSLSSTLTLSKADYEKHKVYACEVTHQGLSSPVTKSFNRGEC
notes: copies: 1 + 1 + 2
B8: GpH7-A5/GpH7-B3 variant P331_10E/GpL16-k0 (antibody, human IgG1, kappa)
heavy 1: not shown
heavy 2: not shown
light: DIVMTQSPLSLPVTPGEPASISCQASESLVHSNRNTYLHWYLQKPGQSPQLLIYKVSNRFSGVPDRFSGSGSGTDFTLKISRVEAEDVGVYYCSQNTHVPPTFGQGTKVEIERTVAAPSVFIFPPSDEQLKSGTASVVCLLNNFYPREAKVQWKVDNALQSGNSQESVTEQDSKDSTYSLSSTLTLSKADYEKHKVYACEVTHQGLSSPVTKSFNRGEC
notes: copies: 1 + 1 + 2
B9: GpH7-A5/GpH7-B3 variant P331_11K/GpL16-k0 (antibody, human IgG1, kappa)
heavy 1: not shown
heavy 2: not shown
light: DIVMTQSPLSLPVTPGEPASISCQASESLVHSNRNTYLHWYLQKPGQSPQLLIYKVSNRFSGVPDRFSGSGSGTDFTLKISRVEAEDVGVYYCSQNTHVPPTFGQGTKVEIERTVAAPSVFIFPPSDEQLKSGTASVVCLLNNFYPREAKVQWKVDNALQSGNSQESVTEQDSKDSTYSLSSTLTLSKADYEKHKVYACEVTHQGLSSPVTKSFNRGEC
notes: copies: 1 + 1 + 2
B10: GpH7-A5/GpH7-B3 variant P331_12R/GpL16-k0 (antibody, human IgG1, kappa)
heavy 1: not shown
heavy 2: not shown
light: DIVMTQSPLSLPVTPGEPASISCQASESLVHSNRNTYLHWYLQKPGQSPQLLIYKVSNRFSGVPDRFSGSGSGTDFTLKISRVEAEDVGVYYCSQNTHVPPTFGQGTKVEIERTVAAPSVFIFPPSDEQLKSGTASVVCLLNNFYPREAKVQWKVDNALQSGNSQESVTEQDSKDSTYSLSSTLTLSKADYEKHKVYACEVTHQGLSSPVTKSFNRGEC
notes: copies: 1 + 1 + 2
B11: GpH7-A5/GpH7-B3 variant P331_13S/GpL16-k0 (antibody, human IgG1, kappa)
heavy 1: not shown
heavy 2: not shown
light: DIVMTQSPLSLPVTPGEPASISCQASESLVHSNRNTYLHWYLQKPGQSPQLLIYKVSNRFSGVPDRFSGSGSGTDFTLKISRVEAEDVGVYYCSQNTHVPPTFGQGTKVEIERTVAAPSVFIFPPSDEQLKSGTASVVCLLNNFYPREAKVQWKVDNALQSGNSQESVTEQDSKDSTYSLSSTLTLSKADYEKHKVYACEVTHQGLSSPVTKSFNRGEC
notes: copies: 1 + 1 + 2

The binders below were run against T1, FcγRIIIa (human, UniProt P08637 17-208) (assay: SPR (Biacore);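 note: antibody variants captured on an SPR sensor chip, with FcγRIIIa passed over as analyte in HBS-EP+ buffer at 25 °C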).
T1 construct: extracellular domain; also called 3a; FcγRIIIa extracellular domain
T1 sequence (P08637 other isoform, or with tags, fused parts or gaps): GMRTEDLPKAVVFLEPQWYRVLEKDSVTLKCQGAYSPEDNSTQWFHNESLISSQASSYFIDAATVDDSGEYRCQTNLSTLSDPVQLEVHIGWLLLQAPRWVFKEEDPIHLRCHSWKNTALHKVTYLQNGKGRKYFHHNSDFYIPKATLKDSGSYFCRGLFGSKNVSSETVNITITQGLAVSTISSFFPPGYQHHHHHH
In the case of B1, the “He/Con 3a” value is reported as 82.5 % of GpH7-A5/GpH7-B3/GpL16-k0.
In the case of B2, the “He/Con 3a” value is reported as 66.9 % of GpH7-A5/GpH7-B3/GpL16-k0.
B3 was tested, and the “He/Con 3a” value was 70.7 % of GpH7-A5/GpH7-B3/GpL16-k0.
With B4 the “He/Con 3a” value was 68.4 % of GpH7-A5/GpH7-B3/GpL16-k0.
With B5 the “He/Con 3a” value was 60.4 % of GpH7-A5/GpH7-B3/GpL16-k0.
In the case of B6, the “He/Con 3a” value is reported as 66 % of GpH7-A5/GpH7-B3/GpL16-k0.
With B7 the “He/Con 3a” value was 71.6 % of GpH7-A5/GpH7-B3/GpL16-k0.
B8 was tested, and the “He/Con 3a” value was 68.7 % of GpH7-A5/GpH7-B3/GpL16-k0.
In the case of B9, the “He/Con 3a” value is reported as 61.8 % of GpH7-A5/GpH7-B3/GpL16-k0.
In the case of B10, the “He/Con 3a” value is reported as 64.8 % of GpH7-A5/GpH7-B3/GpL16-k0.
For B11, the “He/Con 3a” value was 80.9 % of GpH7-A5/GpH7-B3/GpL16-k0.
